# Assay results published in US11440969B2, “Use of human epididymis protein 4 (HE4) for assessing responsiveness of MUC 16-positive cancer treatment” (Genentech, Inc., priority 2016, dated 2022).
# Where “and” joins values, the source holds several entries; their conditions need not be identical. Identical values can stand only once. Entries after “also recorded” stand apart in the source; their conditions may differ.
# B1: DMUC5754A: antibody-drug conjugate: humanized IgG1 anti-MUC16 monoclonal antibody and MMAE, linked through protease labile linker maleimidocaproyl-valine-citrulline-p-aminobenzyloxycarbonyl (conjugate, chains of the INN, looked up)
# VH: EVQLVESGGGLVQPGGSLRLSCAASGYSITNDYAWNWVRQAPGKGLEWVGYISYSGYTTYNPSLKSRFTISRDTSKNTLYLQMNSLRAEDTAVYYCARWTSGLDYWGQGTLVTVSS
# VL: DIQMTQSPSSLSASVGDRVTITCKASDLIHNWLAWYQQKPGKAPKLLIYGATSLETGVPSRFSGSGSGTDFTLTISSLQPEDFATYYCQQYWTTPFTFGQGTKVEIK
# modifications: MMAE via mc-vc-PABC linker
# Assays:
# [1] = DMUC5754A pharmacokinetics in patients (total antibody ELISA; acMMAE and unconjugated MMAE LC/MS/MS); assay type: in vivo, human
# Description: Pharmacokinetics (PK) of DMUC5754A was characterized following q3w or qlw dosing schedules in both OC and PC patients. Serum or plasma samples at multiple pre-specified time points were quantified for three analytes (unconjugated MMAE, DMUC5754A total antibody, and DMUC5754A conjugate (measured as antibody-conjugated MMAE, acMMAE)). Total antibody (antibody with MMAE-to-antibody ratio equal or greater than zero, including conjugated, partially deconjugated and fully deconjugated antibody) were analyzed using validated enzyme-linked immunosorbent assay methods with the minimum quantifiable concentration of 60 ng/mL. Plasma acMMAE and unconjugated MMAE were determined by using validated LC/MS/MS assays. The lower limit of quantitation (LLOQ) for the acMMAE assay and unconjugated MMAE were 0.359 ng/mL and 0.0359 ng/mL in human plasma, respectively. PK data after Cycle 1, Day 1 dose of DMUC5754A were analyzed with non-compartmental analysis using Phoenix WinNonlin 6.2 (Certara, L. P.), and further evaluated based on dose regimen and cancer type.
# [2] = Serum anti-therapeutic antibody (ATA) bridging antibody ELISA; assay type: in vivo, human; settings: patients; minimal impact on the exposure
# Method: Serum anti-therapeutic antibody (ATA) samples were collected from all treated patients and were analyzed using a validated bridging antibody ELISA. Positive antibody responses were further characterized by competitive binding to determine if the response was primarily directed against the antibody or the linker-drug portion of the ADC.
# [3] = test system: unresectable pancreatic cancer; assay: Clinical activity of DMUC5754A (RECIST) in pancreatic cancer patients; assay type: in vivo, human; settings: PC patients, 2.4 mg/kg q3w, 10 patients treated
# Method: This multicenter, open-label, dose-escalation study was designed to identify the recommended Phase II dose (RP2D) of DMUC5754A in patients with platinum-resistant OC or unresectable pancreatic cancer. In the single-agent dose escalation stage utilizing a 3+3 enrollment scheme, patients were given intravenous DMUC5754A (Genentech Inc.) 0.3-3.2 mg/kg every 3 weeks (q3w) to evaluate the safety, tolerability, and pharmacokinetics of DMUC5754A. Following determination of the maximum tolerated dose (MTD), dose-expansion cohorts were enrolled at the RP2D of 2.4 mg/kg to further characterize the safety and preliminary clinical efficacy of DMUC5754A.
# PC patients had histologic documentation of incurable, locally advanced, or metastatic disease for which no standard therapy exists, consisting of unresectable pancreatic ductal adenocarcinoma (i.e., patients with locally advanced or metastatic disease who are not considered eligible for surgical resection with curative intent), including recurrence of previously-resected disease considered unresectable with curative intent. […]
# Objective response rate was estimated only for patients with disease that was measurable by RECIST guidelines. Objective response is defined as a complete or partial response, as determined by investigator assessment and confirmed by repeat assessments ≥4 weeks after initial documentation. […]
# [4] = test system: recombinant human MUC16 extracellular domain; assay: Binding to recombinant human MUC16 extracellular domain
# [5] = test system: MUC16 expressing mouse ovarian and pancreatic cancer xenograft models; assay: Mouse xenograft anti-tumor activity; assay type: in vivo; settings: single agent
# [6] = Cycle 1, 2.4 mg/kg q3w, OC (n = 29), Mean [SD]
# [7] = Cycle 1, 2.4 mg/kg q3w, PC (n = 10), Mean [SD]
# [8] = q1w 1st dose, 0.8 mg/kg, OC, N 3
# [9] = q1w 1st dose, 1.1 mg/kg, OC, N 7
# [10] = q1w 1st dose, 1.4 mg/kg, OC, N 6
# [11] = q1w 1st dose, 1.4 mg/kg, PC, N 1
# [12] = q1w 1st dose, 1.6 mg/kg, OC, N 4
# [13] = q3w 1st cycle, 0.3 mg/kg, OC, N 3
# [14] = q3w 1st cycle, 0.6 mg/kg, OC, N 3
# [15] = q3w 1st cycle, 1.2 mg/kg, OC, N 3
# [16] = q3w 1st cycle, 1.8 mg/kg, OC, N 3
# [17] = q3w 1st cycle, 2.4 mg/kg, OC, N 29
# [18] = q3w 1st cycle, 2.4 mg/kg, PC, N 10
# [19] = q3w 1st cycle, 3.2 mg/kg, OC, N 3
molecule,measurement,setting,value
B1,acMMAE CL,[1]; [6],25.4 ± 8.39 mL/day/kg
same,acMMAE Vss,[1]; [6],82.1 ± 21.1 mL/kg
same,acMMAE t1/2,[1]; [6],5.01 ± 1.45 days
same,acMMAE Vss,[1]; [7],94.6 [32.4] mL/kg
same,acMMAE t1/2,[1]; [7],5.42 [1.91] day
same,"systemic unconjugated MMAE exposure, fold less than acMMAE exposure","[1]; human, in vivo",approximately 100 fold
same,Total Antibody AUCinf,[1]; [8],33.2 µg·days/mL
same,Total Antibody Cmax,[1]; [8],13 µg/mL
same,acMMAE AUCinf,[1]; [8],386 ng·days/mL
same,acMMAE Cmax,[1]; [8],227 ng/mL
same,Unconjugated MMAE Cmax,"[1]; q1w 1st dose, 0.8 mg/kg, OC, n = 2",1.24 ng/mL
same,Total Antibody AUCinf,[1]; [9],56.1 µg·days/mL
same,Total Antibody Cmax,[1]; [9],17.7 µg/mL
same,Unconjugated MMAE Cmax,[1]; [9],3.23 ng/mL
same,acMMAE Cmax,[1]; [9],301 ng/mL
same,acMMAE AUCinf,"[1]; q1w 1st dose, 1.1 mg/kg, OC, n = 6",612 ng·days/mL
same,Total Antibody AUCinf,[1]; [10],73.0 µg·days/mL
same,Total Antibody Cmax,[1]; [10],23.9 µg/mL
same,Unconjugated MMAE Cmax,[1]; [10],3.73 ng/mL
same,acMMAE Cmax,[1]; [10],449 ng/mL
same,acMMAE AUCinf,"[1]; q1w 1st dose, 1.4 mg/kg, OC, n = 5",813 ng·days/mL
same,Total Antibody AUCinf,[1]; [11],55.7 µg·days/mL
same,Total Antibody Cmax,[1]; [11],17.3 µg/mL
same,Unconjugated MMAE Cmax,[1]; [11],7.59 ng/mL
same,acMMAE AUCinf,[1]; [11],542 ng·days/mL
same,acMMAE Cmax,[1]; [11],204 ng/mL
same,Total Antibody AUCinf,[1]; [12],82.3 µg·days/mL
same,Total Antibody Cmax,[1]; [12],29.7 µg/mL
same,Unconjugated MMAE Cmax,[1]; [12],5.75 ng/mL
same,acMMAE AUCinf,[1]; [12],957 ng·days/mL
same,acMMAE Cmax,[1]; [12],539 ng/mL
same,Total Antibody Cmax,[1]; [13],6.65 µg/mL
same,Unconjugated MMAE AUCinf,[1]; [13],4.33 ng·days/mL
same,Unconjugated MMAE Cmax,[1]; [13],0.675 ng/mL
same,acMMAE AUCinf,[1]; [13],135 ng·days/mL
same,acMMAE Cmax,[1]; [13],93.3 ng/mL
same,Total Antibody AUCinf,"[1]; q3w 1st cycle, 0.3 mg/kg, OC, n = 2",13.1 µg·days/mL
same,Total Antibody AUCinf,[1]; [14],29.5 µg·days/mL
same,Total Antibody Cmax,[1]; [14],16.6 µg/mL
same,Unconjugated MMAE AUCinf,[1]; [14],10.3 ng·days/mL
same,Unconjugated MMAE Cmax,[1]; [14],2.03 ng/mL
same,acMMAE AUCinf,[1]; [14],310 ng·days/mL
same,acMMAE Cmax,[1]; [14],226 ng/mL
same,Total Antibody AUCinf,[1]; [15],81.8 µg·days/mL
same,Total Antibody Cmax,[1]; [15],22.5 µg/mL
same,Unconjugated MMAE AUCinf,[1]; [15],19.2 ng·days/mL
same,Unconjugated MMAE Cmax,[1]; [15],2.84 ng/mL
same,acMMAE AUCinf,[1]; [15],715 ng·days/mL
same,acMMAE Cmax,[1]; [15],337 ng/mL
same,Total Antibody AUCinf,[1]; [16],106.0 µg·days/mL
same,Total Antibody Cmax,[1]; [16],35.5 µg/mL
same,Unconjugated MMAE AUCinf,[1]; [16],33.1 ng·days/mL
same,Unconjugated MMAE Cmax,[1]; [16],4.7 ng/mL
same,acMMAE AUCinf,[1]; [16],1050 ng·days/mL
same,acMMAE Cmax,[1]; [16],618 ng/mL
same,Total Antibody AUCinf,[1]; [17],178.0 µg·days/mL
same,Total Antibody Cmax,[1]; [17],42.2 µg/mL
same,Unconjugated MMAE Cmax,[1]; [17],6.77 ng/mL
same,acMMAE AUCinf,[1]; [17],1850 ng·days/mL
same,acMMAE Cmax,[1]; [17],860 ng/mL and 860 [216] ng/mL
same,Unconjugated MMAE AUCinf,"[1]; q3w 1st cycle, 2.4 mg/kg, OC, n = 28",55.5 ng·days/mL
same,Total Antibody AUCinf,[1]; [18],167.0 µg·days/mL
same,Total Antibody Cmax,[1]; [18],38.9 µg/mL
same,Unconjugated MMAE AUCinf,[1]; [18],63.6 ng·days/mL
same,Unconjugated MMAE Cmax,[1]; [18],7.7 ng/mL
same,acMMAE AUCinf,[1]; [18],1680 ng·days/mL
same,acMMAE Cmax,[1]; [18],737 ng/mL and 737 [115] ng/mL
same,Total Antibody AUCinf,[1]; [19],324.0 µg·days/mL
same,Total Antibody Cmax,[1]; [19],71.4 µg/mL
same,Unconjugated MMAE Cmax,[1]; [19],20 ng/mL
same,acMMAE AUCinf,[1]; [19],3380 ng·days/mL
same,acMMAE Cmax,[1]; [19],1220 ng/mL
same,Unconjugated MMAE AUCinf,"[1]; q3w 1st cycle, 3.2 mg/kg, OC, n = 1",111 ng·days/mL
same,"increase of exposure of acMMAE or total antibody (Cmax or AUCinf, Cycle 1) with dose","[1]; q3w and q1w cohorts, 0.3-3.2 mg/kg, nonlinear PK",not dose proportional
same,immunogenicity rate,[2],14.1%
same,radiographic responses,[3],No patients; also recorded: no radiologic responses
same,binding affinity,[4],high affinity
same,anti-tumor activity,[5],potent and selective single agent anti-tumor activity
